Assay results published in patent publication US10654927B2, “Signalling system” (UCL BUSINESS PLC, priority 2014, dated 2020).

Key:
[1] = tested on: SupT1 cells engineered to express CD33; assay: Activation of BW5 T-cells expressing TetCAR challenged with SupT1 cells engineered to express CD33; type: cell-based; conditions: increasing concentrations of tetracycline
From the text: FIG. 7—Function of the initial TetR construct in comparison with control. (a) TetCAR was expressed in BW5 T-cells. These T-cells were challenged with wild-type SupT1 cells or SupT1 cells engineered to express CD33 in the absence of tetracycline or in the presence of increasing concentrations of tetracycline. […] (b) Control TetCAR which lacks the TiP domain was transduced into BW5. Once again, these T-cells were challenged with wild-type SupT1 cells or SupT1 cells engineered to express CD33 in the absence or in the presence of increasing concentration of Tetracycline.
Signalling through the signalling component may be determined by a variety of methods known in the art. […] Functional readouts, such as clonal expansion of T cells, upregulation of activation markers on the cell surface, differentiation into effector cells and induction of cytotoxicity or cytokine secretion may also be utilised. As an illustration, in the present examples the inventors determined levels of interleukin-2 (IL-2) produced by T-cells expressing a receptor component and signalling component of the CAR system according to the present invention upon binding of antigen to the receptor component in the presence of varying concentrations of an agent. […]

streptavidin = streptavidin (Streptomyces avidinii, UniProt P22629); conditions: biotin mimicking peptide binding streptavidin; read-out: affinity; cited from earlier work
Sequence of streptavidin (P22629 37-163): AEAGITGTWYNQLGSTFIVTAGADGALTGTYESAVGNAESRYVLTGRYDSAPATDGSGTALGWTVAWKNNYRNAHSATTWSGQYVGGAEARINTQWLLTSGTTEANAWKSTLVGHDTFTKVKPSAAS

Molecule	concentration of tetracycline at which activation is fully inhibited [1] [nM]	Kd (streptavidin) [nM]
CN(C)[C@@H]1C(O)=C(C(N)=O)C(=O)[C@@]2(O)C(O)=C3C(=O)c4c(O)cccc4[C@@](C)(O)[C@H]3C[C@@H]12 [tetracycline]	100	
Biotin mimicking peptide CHPQGPPC (SEQ ID NO: 9) (Biotin mimicking peptide, ccstreptag)		230
Biotin mimicking peptide DVEAWLDERVPLVET (SEQ ID NO: 4) (Biotin mimicking peptide, long nanotag)		3.6
Biotin mimicking peptide DVEAWLGAR (SEQ ID NO: 5) (Biotin mimicking peptide, short nanotag)		17
Biotin mimicking peptide WSHPQFEK (SEQ ID NO: 7) [streptag II]		72000
